Results published in PMC10691244, “The mechanism of Gαq regulation of PLCβ3-catalyzed PIP2 hydrolysis” (Proceedings of the National Academy of Sciences of the …, 2023).

Target: T1, Phospholipase Cβ3 (PLCβ3), wild type (UniProt Q01970 10-1234)
T1 construct: Phospholipase Cβ3; The CTD linker and distal CTD are disordered in the structures; also called wild-type PLCβ3
T1 sequence: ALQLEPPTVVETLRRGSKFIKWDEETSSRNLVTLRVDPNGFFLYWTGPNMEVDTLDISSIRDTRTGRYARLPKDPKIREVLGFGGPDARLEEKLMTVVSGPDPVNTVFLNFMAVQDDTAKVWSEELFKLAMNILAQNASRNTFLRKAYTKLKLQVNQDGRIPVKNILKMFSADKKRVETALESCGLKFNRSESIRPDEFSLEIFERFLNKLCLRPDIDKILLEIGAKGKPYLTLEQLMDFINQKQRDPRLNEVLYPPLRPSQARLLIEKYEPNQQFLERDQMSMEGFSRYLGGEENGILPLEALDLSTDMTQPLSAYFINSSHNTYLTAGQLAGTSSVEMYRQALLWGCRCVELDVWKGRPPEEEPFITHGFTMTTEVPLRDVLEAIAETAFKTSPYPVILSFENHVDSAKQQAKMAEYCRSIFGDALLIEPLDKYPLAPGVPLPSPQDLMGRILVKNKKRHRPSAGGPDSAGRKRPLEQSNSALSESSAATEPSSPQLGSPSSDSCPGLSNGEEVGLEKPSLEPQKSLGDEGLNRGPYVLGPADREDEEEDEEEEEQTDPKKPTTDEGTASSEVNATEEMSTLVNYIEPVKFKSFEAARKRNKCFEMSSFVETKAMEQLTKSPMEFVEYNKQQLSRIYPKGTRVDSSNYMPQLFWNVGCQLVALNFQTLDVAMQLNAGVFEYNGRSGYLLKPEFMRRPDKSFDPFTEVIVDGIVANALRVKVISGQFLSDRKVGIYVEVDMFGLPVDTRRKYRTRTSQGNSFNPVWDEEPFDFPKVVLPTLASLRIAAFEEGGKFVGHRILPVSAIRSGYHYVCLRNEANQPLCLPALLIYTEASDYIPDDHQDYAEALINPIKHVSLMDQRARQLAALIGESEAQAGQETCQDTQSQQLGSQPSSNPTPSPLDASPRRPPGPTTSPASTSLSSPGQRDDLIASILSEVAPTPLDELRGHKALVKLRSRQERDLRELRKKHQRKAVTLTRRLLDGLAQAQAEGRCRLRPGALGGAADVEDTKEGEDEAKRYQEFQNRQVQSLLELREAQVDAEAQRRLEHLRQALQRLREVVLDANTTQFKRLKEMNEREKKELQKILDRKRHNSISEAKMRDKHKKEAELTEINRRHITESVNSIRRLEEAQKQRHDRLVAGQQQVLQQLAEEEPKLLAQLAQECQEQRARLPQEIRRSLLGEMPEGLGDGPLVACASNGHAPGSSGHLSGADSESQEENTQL
Test: cryo-EM structure; PLCβ3 mixed with wildtype Gαq bound to GDP-AlF4, then added to 2DOPE:1POPC:1POPS (wt:wt:wt) vesicles with reconstituted lipidated Gβγ; 3.4 Å
Conditions: both partners purified

stoichiometry N: 1
B1: Gαq, wild type, nonlipidated, bound to GDP-AlF4 (natural protein)
chain: MACCLSEEAKEARRINDEIERQLRRDKRDARRELKLLLLGTGESGKSTFIKQMRIIHGSGYSDEDKRGFTKLVYQNIFTAMQAMIRAMDTLKIPYKYEHNKAHAQLVREVDVEKVSAFENPYVDAIKSLWNDPGIQECYDRRREYQLSDSTKYYLNDLDRVADPAYLPTQQDVLRVRVPTTGIIEYPFDLQSVIFRMVDVGGQRSERRKWIHCFENVTSIMFLVALSEYDQVLVESDNENRMEESKALFRTIITYPWFQNSSVILFLNKKDLLEEKIMYSHLVDYFPEYDGPQRDAQAAREFILKMFVDLNPDSDKIIYSHFTCATDTENIRFVFAAVKDTILQLNLKEYNLV
notes: In the structures the N terminus is disordered until position 38; Construct limits, any chimeric N terminus, host and tags are described only in SI Appendix, Materials and Methods; also called wildtype Gαq; wild-type Gαq
